This passage reports Kd and stoichiometry N results from publication PMC11286415.

Series [1] addresses Trypanosoma brucei multi-aminoacyl-tRNA synthetase complex (MSC)-associated protein 3 (MCP3), wild type (Trypanosoma brucei). The series can be described thus: ITC; dimer to monomers: 250 uM WT MCP3 in the syringe injected into buffer in the cell (50 mM glycylglycine pH 8.0, 300 mM NaCl, 2 mM DTE); 13 injections of 1 uL, 25°C.
For series [2] the target is unchanged. The series can be described thus: SEC-MALS; 300 ug protein at 3 mg/mL in 100 uL; 30 mM Tris-HCl pH 8.0, 100 mM NaCl, 5 mM MgCl2, 2 mM DTT; incubated at 27°C for 1 h; Superdex 200 Increase 10/300 GL, 0.5 mL/min; no tRNA.
For series [3], the system named is WT MCP3 (Trypanosoma brucei). The series can be described thus: ITC. The conditions noted are these: 1 mM Mg2+; unmodified in vitro transcript; ITC: 20 mM MOPS pH 7.8, 100 mM NaCl, 2 mM DTE, 1 mM MgCl2, 25 C, 30 uM protein in cell, 300 uM tRNA in syringe; SEC-MALS: preincubation 27 C, run at 4 C ….
The subject of series [4] is ΔN MCP3 (Trypanosoma brucei). Nature of the series: ITC. The conditions noted are these: unmodified in vitro transcript; ITC: 20 mM MOPS pH 7.8, 100 mM NaCl, 2 mM DTE, 1 mM MgCl2, 25 C, 30 uM protein in cell, 300 uM tRNA in syringe; SEC-MALS: preincubation 27 C, run at 4 C ….

Regarding “Trypanosoma brucei multi-aminoacyl-tRNA synthetase complex (MSC)-associated protein 3 (MCP3), wild type (enzyme)”, the Kd in series [1] came out at 2600 nM. In series [2], the stoichiometry N stood at 2. Turning to tRNAAla, the Kd in series [3] amounted to 1120 nM.

Take tRNAPro: the Kd in series [4] came out at 809 nM; in series [3] it was 1050 nM.
